The target of test [1] is human Y2 receptor (human) (UniProt P49146). In words: cell-based or functional assay.
Test [2] shares this target. In words: RBA: displacement of [125I]-PYY from hY2R/CHO membranes. For orientation: Loss of bound radioactivity is the signal in a displacement assay; it reports binding, not function.

Non-standard residues stand in square brackets, D forms with d. *: point of attachment. X3 = ((1S)-1-Carboxy-2-hydroxyethyl)carbamoyl, O=C(O)[C@H](CO)NC(=O)*; X2 = (tetrahydro-2H-pyran-4-ylmethyl)carbamoyl, O=C(NCC1CCOCC1)*; X8 = (2-Hydroxy-1-(hydroxymethyl)ethyl)carbamoyl, O=C(NC(CO)CO)*; X7 = (tetrahydro-2H-pyran-4-yl)carbamoyl, O=C(NC1CCOCC1)*; (3-carboxypropyl)carbamoyl = O=C(O)CCCNC(=O)*; (2-carboxyethyl)carbamoyl = O=C(O)CCNC(=O)*; (carboxymethyl)carbamoyl = O=C(O)CNC(=O)*; Tetrahydropyran4carbonyl = O=C(C1CCOCC1)*; tBuAla = CC(C)(C)C[C@H](N)C(=O)O; 4Pal = N[C@@H](Cc1ccncc1)C(=O)O; dHyp = O=C(O)[C@H]1C[C@H](O)CN1; Cha = N[C@@H](CC1CCCCC1)C(=O)O; Iva = CC[C@](C)(N)C(=O)O; Nva = CCC[C@H](N)C(=O)O; Aib = CC(C)(N)C(=O)O

Sequence of human Y2 receptor (human) (P49146 whole entry): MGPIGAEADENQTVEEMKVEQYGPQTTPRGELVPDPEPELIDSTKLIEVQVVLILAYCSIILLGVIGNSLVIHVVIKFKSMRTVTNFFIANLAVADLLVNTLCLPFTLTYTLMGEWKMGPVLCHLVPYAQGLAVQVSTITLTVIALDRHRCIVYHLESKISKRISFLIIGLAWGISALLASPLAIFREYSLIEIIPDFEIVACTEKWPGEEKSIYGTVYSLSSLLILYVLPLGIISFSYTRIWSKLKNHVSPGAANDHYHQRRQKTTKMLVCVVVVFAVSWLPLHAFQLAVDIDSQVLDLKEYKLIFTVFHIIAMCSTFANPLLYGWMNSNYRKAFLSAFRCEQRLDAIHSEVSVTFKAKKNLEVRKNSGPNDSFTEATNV

B1: (Tetrahydro-2H-pyran-4-yl)carbonyl-[D-Pro24, Iva25, Pya(4)26, Cha27,36, Aib28,31, Lys30]-PYY(23-36) (peptide)
peptide: Tetrahydropyran4carbonyl-S[dP][Iva][4Pal][Cha][Aib]NK[Aib]TRQR[Cha]-NH2
SMILES: CC[C@](C)(NC(=O)[C@H]1CCCN1C(=O)[C@H](CO)NC(=O)C1CCOCC1)C(=O)N[C@@H](Cc1ccncc1)C(=O)N[C@@H](CC1CCCCC1)C(=O)NC(C)(C)C(=O)N[C@@H](CC(N)=O)C(=O)N[C@@H](CCCCN)C(=O)NC(C)(C)C(=O)N[C@H](C(=O)N[C@@H](CCCNC(=N)N)C(=O)N[C@@H](CCC(N)=O)C(=O)N[C@@H](CCCNC(=N)N)C(=O)N[C@@H](CC1CCCCC1)C(N)=O)[C@@H](C)O
With B1, the GBA EC50 Ratio ([35S]GTPγS binding) (EC50 compound/EC50 PYY(3-36)) in test [1] was found to be 1.9. The IC50 Ratio (IC50 compound/IC50 PYY(3-36)) in test [2] was 3.3.

B2: (Carboxymethyl)carbamoyl-[D-Pro24, Iva25, Pya(4)26, Cha27,36, Aib28,31, Lys30]-PYY(23-36) (peptide)
peptide: {(carboxymethyl)carbamoyl}-S[dP][Iva][4Pal][Cha][Aib]NK[Aib]TRQR[Cha]-NH2
SMILES: CC[C@](C)(NC(=O)[C@H]1CCCN1C(=O)[C@H](CO)NC(=O)NCC(=O)O)C(=O)N[C@@H](Cc1ccncc1)C(=O)N[C@@H](CC1CCCCC1)C(=O)NC(C)(C)C(=O)N[C@@H](CC(N)=O)C(=O)N[C@@H](CCCCN)C(=O)NC(C)(C)C(=O)N[C@H](C(=O)N[C@@H](CCCNC(=N)N)C(=O)N[C@@H](CCC(N)=O)C(=O)N[C@@H](CCCNC(=N)N)C(=O)N[C@@H](CC1CCCCC1)C(N)=O)[C@@H](C)O
In the case of B2, the GBA EC50 Ratio ([35S]GTPγS binding) (EC50 compound/EC50 PYY(3-36)) in test [1] amounted to 1.6. In addition, the IC50 Ratio (IC50 compound/IC50 PYY(3-36)) in test [2] stood at 3.

B3: [2-Hydroxy-1-(hydroxymethyl)ethyl]carbamoyl-[D-Pro24, Iva25, Pya(4)26, Cha27,36, Aib28,31, Lys30]-PYY(23-36) (peptide)
peptide: X8-S[dP][Iva][4Pal][Cha][Aib]NK[Aib]TRQR[Cha]-NH2
SMILES: CC[C@](C)(NC(=O)[C@H]1CCCN1C(=O)[C@H](CO)NC(=O)NC(CO)CO)C(=O)N[C@@H](Cc1ccncc1)C(=O)N[C@@H](CC1CCCCC1)C(=O)NC(C)(C)C(=O)N[C@@H](CC(N)=O)C(=O)N[C@@H](CCCCN)C(=O)NC(C)(C)C(=O)N[C@H](C(=O)N[C@@H](CCCNC(=N)N)C(=O)N[C@@H](CCC(N)=O)C(=O)N[C@@H](CCCNC(=N)N)C(=O)N[C@@H](CC1CCCCC1)C(N)=O)[C@@H](C)O
As for B3, in test [1], the GBA EC50 Ratio ([35S]GTPγS binding) (EC50 compound/EC50 PYY(3-36)) was determined as 2. Further, the IC50 Ratio (IC50 compound/IC50 PYY(3-36)) in test [2] is 1.76.

B4: (Tetrahydro-2H-pyran-4-yl)carbamoyl-[D-Pro24, Iva25, Pya(4)26, Cha27,36, Aib28,31, Lys30]-PYY(23-36) (peptide)
peptide: X7-S[dP][Iva][4Pal][Cha][Aib]NK[Aib]TRQR[Cha]-NH2
SMILES: CC[C@](C)(NC(=O)[C@H]1CCCN1C(=O)[C@H](CO)NC(=O)NC1CCOCC1)C(=O)N[C@@H](Cc1ccncc1)C(=O)N[C@@H](CC1CCCCC1)C(=O)NC(C)(C)C(=O)N[C@@H](CC(N)=O)C(=O)N[C@@H](CCCCN)C(=O)NC(C)(C)C(=O)N[C@H](C(=O)N[C@@H](CCCNC(=N)N)C(=O)N[C@@H](CCC(N)=O)C(=O)N[C@@H](CCCNC(=N)N)C(=O)N[C@@H](CC1CCCCC1)C(N)=O)[C@@H](C)O
On to B4, for which the GBA EC50 Ratio ([35S]GTPγS binding) (EC50 compound/EC50 PYY(3-36)) in test [1] came out at 1.8. For the same molecule, in test [2], the IC50 Ratio (IC50 compound/IC50 PYY(3-36)) came out at 1.7.

B5: [(1S)-1-Carboxy-2-hydroxyethyl]carbamoyl-[D-Pro24, Iva25, Pya(4)26, Cha27,36, Aib28,31, Lys30]-PYY(23-36) (peptide)
peptide: X3-S[dP][Iva][4Pal][Cha][Aib]NK[Aib]TRQR[Cha]-NH2
SMILES: CC[C@](C)(NC(=O)[C@H]1CCCN1C(=O)[C@H](CO)NC(=O)N[C@@H](CO)C(=O)O)C(=O)N[C@@H](Cc1ccncc1)C(=O)N[C@@H](CC1CCCCC1)C(=O)NC(C)(C)C(=O)N[C@@H](CC(N)=O)C(=O)N[C@@H](CCCCN)C(=O)NC(C)(C)C(=O)N[C@H](C(=O)N[C@@H](CCCNC(=N)N)C(=O)N[C@@H](CCC(N)=O)C(=O)N[C@@H](CCCNC(=N)N)C(=O)N[C@@H](CC1CCCCC1)C(N)=O)[C@@H](C)O
B5: the GBA EC50 Ratio ([35S]GTPγS binding) (EC50 compound/EC50 PYY(3-36)) in test [1] is 3. The IC50 Ratio (IC50 compound/IC50 PYY(3-36)) in test [2] amounted to 3.5.
Consider Carbamoylmethylcarbamoyl-S[dP][Iva][4Pal][Cha][Aib]NK[Aib]TRQR[Cha]-NH2 [Carbamoylmethylcarbamoyl-[D-Pro24, Iva25, Pya(4)26, Cha27,36, Aib28,31, Lys30]-PYY(23-36)], for which the GBA EC50 Ratio ([35S]GTPγS binding) (EC50 compound/EC50 PYY(3-36)) in test [1] was found to be 1.7. Besides, in test [2], the IC50 Ratio (IC50 compound/IC50 PYY(3-36)) was 1.7.

B6: Ac-[D-Pro24, Iva25, Pya(4)26, Cha27,36, Nva28, Aib31, Lys30]-PYY(23-36) (peptide)
peptide: Ac-S[dP][Iva][4Pal][Cha][Nva]NK[Aib]TRQR[Cha]-NH2
SMILES: CCC[C@H](NC(=O)[C@H](CC1CCCCC1)NC(=O)[C@H](Cc1ccncc1)NC(=O)[C@](C)(CC)NC(=O)[C@H]1CCCN1C(=O)[C@H](CO)NC(C)=O)C(=O)N[C@@H](CC(N)=O)C(=O)N[C@@H](CCCCN)C(=O)NC(C)(C)C(=O)N[C@H](C(=O)N[C@@H](CCCNC(=N)N)C(=O)N[C@@H](CCC(N)=O)C(=O)N[C@@H](CCCNC(=N)N)C(=O)N[C@@H](CC1CCCCC1)C(N)=O)[C@@H](C)O
As to B6, in test [1], the GBA EC50 Ratio ([35S]GTPγS binding) (EC50 compound/EC50 PYY(3-36)) turned out to be 1.3. Moreover, in test [2], the IC50 Ratio (IC50 compound/IC50 PYY(3-36)) was 1.6.

B7: (2-Carboxyethyl)carbamoyl-[D-Pro24, Iva25, Pya(4)26, Cha27,36, Aib28,31, Lys30]-PYY(23-36) (peptide)
peptide: {(2-carboxyethyl)carbamoyl}-S[dP][Iva][4Pal][Cha][Aib]NK[Aib]TRQR[Cha]-NH2
SMILES: CC[C@](C)(NC(=O)[C@H]1CCCN1C(=O)[C@H](CO)NC(=O)NCCC(=O)O)C(=O)N[C@@H](Cc1ccncc1)C(=O)N[C@@H](CC1CCCCC1)C(=O)NC(C)(C)C(=O)N[C@@H](CC(N)=O)C(=O)N[C@@H](CCCCN)C(=O)NC(C)(C)C(=O)N[C@H](C(=O)N[C@@H](CCCNC(=N)N)C(=O)N[C@@H](CCC(N)=O)C(=O)N[C@@H](CCCNC(=N)N)C(=O)N[C@@H](CC1CCCCC1)C(N)=O)[C@@H](C)O
Consider B7, for which, in test [1], the GBA EC50 Ratio ([35S]GTPγS binding) (EC50 compound/EC50 PYY(3-36)) was 2.4. Moreover, the IC50 Ratio (IC50 compound/IC50 PYY(3-36)) in test [2] turned out to be 3.2.

B8: (3-Carboxypropyl)carbamoyl-[D-Pro24, Iva25, Pya(4)26, Cha27,36, Aib28,31, Lys30]-PYY(23-36) (peptide)
peptide: {(3-carboxypropyl)carbamoyl}-S[dP][Iva][4Pal][Cha][Aib]NK[Aib]TRQR[Cha]-NH2
SMILES: CC[C@](C)(NC(=O)[C@H]1CCCN1C(=O)[C@H](CO)NC(=O)NCCCC(=O)O)C(=O)N[C@@H](Cc1ccncc1)C(=O)N[C@@H](CC1CCCCC1)C(=O)NC(C)(C)C(=O)N[C@@H](CC(N)=O)C(=O)N[C@@H](CCCCN)C(=O)NC(C)(C)C(=O)N[C@H](C(=O)N[C@@H](CCCNC(=N)N)C(=O)N[C@@H](CCC(N)=O)C(=O)N[C@@H](CCCNC(=N)N)C(=O)N[C@@H](CC1CCCCC1)C(N)=O)[C@@H](C)O
As to B8, the GBA EC50 Ratio ([35S]GTPγS binding) (EC50 compound/EC50 PYY(3-36)) in test [1] stood at 1.9. Also, the IC50 Ratio (IC50 compound/IC50 PYY(3-36)) in test [2] worked out at 1.6.

B9: (Tetrahydro-2H-pyran-4-ylmethyl)carbamoyl-[D-Pro24, Iva25, Pya(4)26, Cha27,36, Aib28,31, Lys30]-PYY(23-36) (peptide)
peptide: X2-S[dP][Iva][4Pal][Cha][Aib]NK[Aib]TRQR[Cha]-NH2
SMILES: CC[C@](C)(NC(=O)[C@H]1CCCN1C(=O)[C@H](CO)NC(=O)NCC1CCOCC1)C(=O)N[C@@H](Cc1ccncc1)C(=O)N[C@@H](CC1CCCCC1)C(=O)NC(C)(C)C(=O)N[C@@H](CC(N)=O)C(=O)N[C@@H](CCCCN)C(=O)NC(C)(C)C(=O)N[C@H](C(=O)N[C@@H](CCCNC(=N)N)C(=O)N[C@@H](CCC(N)=O)C(=O)N[C@@H](CCCNC(=N)N)C(=O)N[C@@H](CC1CCCCC1)C(N)=O)[C@@H](C)O
Consider B9, for which the GBA EC50 Ratio ([35S]GTPγS binding) (EC50 compound/EC50 PYY(3-36)) in test [1] is 1.9. In addition, the IC50 Ratio (IC50 compound/IC50 PYY(3-36)) in test [2] came to 1.7.

B10: Ac-[Glu23, D-Pro24, Iva25, Pya(4)26, Cha27,36, Aib28,31, Lys30]-PYY(23-36) (peptide)
peptide: Ac-E[dP][Iva][4Pal][Cha][Aib]NK[Aib]TRQR[Cha]-NH2
SMILES: CC[C@](C)(NC(=O)[C@H]1CCCN1C(=O)[C@H](CCC(=O)O)NC(C)=O)C(=O)N[C@@H](Cc1ccncc1)C(=O)N[C@@H](CC1CCCCC1)C(=O)NC(C)(C)C(=O)N[C@@H](CC(N)=O)C(=O)N[C@@H](CCCCN)C(=O)NC(C)(C)C(=O)N[C@H](C(=O)N[C@@H](CCCNC(=N)N)C(=O)N[C@@H](CCC(N)=O)C(=O)N[C@@H](CCCNC(=N)N)C(=O)N[C@@H](CC1CCCCC1)C(N)=O)[C@@H](C)O
On to B10, for which the GBA EC50 Ratio ([35S]GTPγS binding) (EC50 compound/EC50 PYY(3-36)) in test [1] worked out at 2.8. In test [2], the IC50 Ratio (IC50 compound/IC50 PYY(3-36)) stood at 6.1.

B11: Ac-[Glu23, D-Hyp24, Iva25, Pya(4)26, Cha27,36, Leu(Me)28, Lys30, Aib31]-PYY(23-36) (peptide)
peptide: Ac-E[dHyp][Iva][4Pal][Cha][tBuAla]NK[Aib]TRQR[Cha]-NH2
SMILES: CC[C@](C)(NC(=O)[C@H]1C[C@H](O)CN1C(=O)[C@H](CCC(=O)O)NC(C)=O)C(=O)N[C@@H](Cc1ccncc1)C(=O)N[C@@H](CC1CCCCC1)C(=O)N[C@@H](CC(C)(C)C)C(=O)N[C@@H](CC(N)=O)C(=O)N[C@@H](CCCCN)C(=O)NC(C)(C)C(=O)N[C@H](C(=O)N[C@@H](CCCNC(=N)N)C(=O)N[C@@H](CCC(N)=O)C(=O)N[C@@H](CCCNC(=N)N)C(=O)N[C@@H](CC1CCCCC1)C(N)=O)[C@@H](C)O
Take B11: the GBA EC50 Ratio ([35S]GTPγS binding) (EC50 compound/EC50 PYY(3-36)) in test [1] was found to be 1.9. For the same molecule, the IC50 Ratio (IC50 compound/IC50 PYY(3-36)) in test [2] was 1.2.

The values are drawn from patent US20120172293A1 (Takeda / Millennium, published 2012).
